One block for each binder: values may come before it.
What was measured:
[1] = target: T1, cynomolgus monkey IL-33 expressed with a C-terminal hexahistidine tag (cynomolgus monkey); test: competition ELISA, 150 pM MfIL-33-6His on coated hST2-hFc
T1 construct: also called MfIL-33-6His; Mf-IL-33-6His
T1 chain: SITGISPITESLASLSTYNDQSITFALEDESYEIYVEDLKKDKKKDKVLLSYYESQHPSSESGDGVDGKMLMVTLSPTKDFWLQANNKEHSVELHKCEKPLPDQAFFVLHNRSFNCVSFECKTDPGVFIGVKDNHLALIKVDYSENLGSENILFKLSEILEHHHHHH
Experimental: (§1) The ability of anti-IL-33 antibodies to block either human IL-33 (hIL-33) or cynomologus monkey IL-33 binding to the human ST2 receptor was measured using a competition sandwich ELISA. […] The antibody/IL-33 mixtures were incubated for 1 hour at room temperature before they were transferred to the hST2-hFc-coated microtiter plates. After incubating for 1 hour at room temperature, the wells were then washed, and plate-bound biotin-hIL-33 was detected with streptavidin conjugated with horse-radish peroxidase (HRP) (Thermo Scientific, Cat # N200), and plate-bound MfIL-33-6His was detected with a HRP conjugated anti-His monoclonal antibody (Qiagen, #34460). All samples were developed with a TMB solution (BD biosciences, #51-2607KC) to produce a colorimetric reaction and then quenched by acidification with 1M sulfuric acid before measuring absorbance at 450 nm on a Victor X5 plate reader. Data analysis was performed using a sigmoidal dose-response model within Prism™ software. […] Percent blockade was calculated as the ratio of the reduction in signal observed in the presence of antibody relative to the difference between the signal with IL-33 alone and background (signal from HRP-conjugated secondary antibody or streptavidin alone). The absorbance measured for the constant concentration of biotin-hIL-33 or MfIL-33-6His alone is defined as 0% blocking and the absorbance measured for no added IL-33 is defined as 100% blocking.

[2] = target: T2, biotinylated hIL-33 protein (R&D systems, Cat #3625-IL/CF) (human, UniProt O95760 112-270, biotinylated (sites not given)); test: competition ELISA, 30 pM biotin-hIL-33 on coated hST2-hFc
T2 construct: Same commercial protein as m21, biotin-labelled; also called biotin-hIL-33
T2 sequence (looked up): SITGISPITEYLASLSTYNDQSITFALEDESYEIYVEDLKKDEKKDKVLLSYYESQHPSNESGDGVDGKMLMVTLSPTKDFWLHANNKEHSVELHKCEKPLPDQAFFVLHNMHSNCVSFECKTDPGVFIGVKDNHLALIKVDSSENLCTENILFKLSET
Experimental: as §1

[3] = target: T3, human IL-33 (R&D Systems, #3625-IL-010/CF) (human, UniProt O95760 112-270); test: BLI; hIL-33 pre-mixed with mAb-2 H1M9565N
T3 construct: Commercial recombinant protein; also called hIL-33; interleukin-33
T3 sequence (looked up): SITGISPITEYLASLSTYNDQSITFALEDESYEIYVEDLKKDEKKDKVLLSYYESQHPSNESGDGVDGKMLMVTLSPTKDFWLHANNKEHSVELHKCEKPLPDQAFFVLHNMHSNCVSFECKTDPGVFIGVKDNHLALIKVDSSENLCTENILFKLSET
Experimental: (§2) Binding competition between a panel of different anti-IL-33 monoclonal antibodies was determined using a real time, label-free bio-layer interferometry assay on an Octet® HTX biosensor (ForteBio, A Division of Pall Life Sciences). The experiment was performed at 25° C. using a buffer of 0.01M HEPES pH7.4, 0.15M NaCl, 0.05% v/v Surfactant Tween-20, and 0.1 mg/ml BSA (HBS-ET kinetics buffer) with the plate shaking at a speed of 1000 rpm. To assess whether two antibodies were able to compete with one another for binding to human IL-33, a pre-mix assay format was used where 100 nM of human IL-33 (R&D Systems; #3625-IL-010/CF) was pre-mixed with 500 nM of different anti-IL-33 monoclonal antibodies (subsequently referred to as mAb-2) for at least 2 hours prior to running the binding competition assay. […] Following the capture step, unoccupied anti-mouse Fc polyclonal antibody and anti-human Fc polyclonal antibody on the Octet biosensors were saturated by submerging them for 4 minutes into wells containing 200 μg/mL of a non-specific monoclonal antibody with a mouse Fc or with a human Fc, respectively. Finally, the Octet biosensors were immersed for 4 minutes into wells containing the pre-mixed samples of 100 nM of human IL-33 and 500 nM of mAb-2. At the end of each cycle, the non-covalently captured anti-IL-33 antibodies along with the bound pre-complex of human IL-33 and mAb-2 were removed from the biosensors using three alternate 20 second immersions into 10 mM HCl followed by submerging into HBS-ET kinetics buffer. The biosensors were washed in HBS-ET kinetics buffer in between every step of the experiment. The real-time binding response was monitored during the binding events, and the binding response (in units of nm) at the end of every step was recorded.

[4] = target: T4, pre-formed complex of hIL-33 and captured hST2-MMH (human, UniProt O95760 112-270); test: SPR 25C, 100 nM mAb over hIL-33/hST2-MMH complex
T4 construct: Ligand-receptor complex on the sensor: hST2-MMH captured by anti-myc mAb and saturated with 100 nM hIL-33; also called hIL-33 pre-complexed with hST2-MMH
Experimental: The ability of anti-IL-33 antibodies to bind to a pre-formed complex of IL-33 with ST2 was tested using Biacore T-200 instrument equipped with a real-time surface plasmon resonance biosensor. The experiment was performed at 25° C. with a running buffer composed of 0.01M HEPES pH 7.4, 0.15M NaCl, 3 mM EDTA, and 0.05% v/v Surfactant Tween-20 (HBS-ET). […] The captured hST2-MMH surface was then saturated by injecting 100 nM of human IL-33 (hIL-33; R&D Systems, #3625-IL-010/CF) for 3 minutes followed by a 3 minute injection of a 100 nM solution of the anti-IL-33 monoclonal antibody. The real-time binding response was monitored during the entire course of the experiment, and the observed binding response at 3 minutes after injection of anti-IL-33 antibody to the pre-formed complex of hIL-33 and captured hST2-MMH was recorded and tabulated and shown in Table 7. No non-specific binding of anti-IL-33 monoclonal antibody to the anti-myc tag capture surface was observed.

[5] = target: T3, human IL-33 (R&D Systems, …); test: BLI; hIL-33 pre-mixed with mAb-2 Isotype control 1
Experimental: as §2

B4: H4H9629P (antibody, human IgG4, V domains shown)
VH: EVQLVESGGGLVQPGGSLRLSCAASGFTFRSFAMSWVRQAPGKGLELVSDLRTSGGSTYYADSVKGRLTISRDNSKNTLYLQMNSLRAEDTAVYYCAKSHYSTSWFGGFDYWGQGTLVTVSS
VL: DIQMTQSPSSVSASVGDRVTITCRASQGFSSWLAWYQQKPGKAPKLLIYAASSLQSGVPSRFSGSGSGTDFTLTITNLQPEDFATYYCQQANSFPLTFGGGTKVEIK
notes: Human IgG4 Fc (H4H)
% Maximum blocking [2]: 80%
IC50 [2]: 450 pM
mAb-1 Binding to the Pre-complex of mAb-2 & hIL-33 [3]: 0.74 nm
Antibody Binding Response (RU) [4]: -1 RU
mAb-1 Binding to the Pre-complex of mAb-2 & hIL-33 [5]: 0.22 nm

B5: H4H9633P (antibody, human IgG4, V domains shown)
VH: EVQLVESGGGLVQPGGSLRLSCAASGFTFSSYVMSWVRQAPGKGLEWVSSISGNGGSTNYADSVKGRFTISRDNSKNTLFLEMNSLRAEDTAVYYCAKSLGTTTTFLGFDYWGQGTLVTVSS
VL: DIQMTQSPSSVSASVGDRVTITCRASQGISSWLAWYQQKPGKAPKLLIYAASSLQSGVPSRFSGSGSGTYFTLTISSLQPEDFATYYCQQANSFPLTFGGGTKVEIK
notes: Human IgG4 Fc (H4H)
% Maximum blocking [2]: 66%
IC50 [2]: 440 pM
mAb-1 Binding to the Pre-complex of mAb-2 & hIL-33 [3]: 0.66 nm
Antibody Binding Response (RU) [4]: -1 RU
mAb-1 Binding to the Pre-complex of mAb-2 & hIL-33 [5]: 0.21 nm

B6: H4H9659P (antibody, human IgG4, V domains shown)
VH: QVQLVQSGAEVKKPGASVKVSCKASGYTFNSYGISWVRQAPGQGLEWMGWISSHNGNSHYVQKFQGRVSMTTDTSTSTAYMELRSLRSDDTAVYYCARHSYTTSWYGGFDYWGQGTLVTVSS
VL: DIQMTQSPSSVSASVGDRVTITCRASQGFSSWLAWYQQKPGKAPQLLIYAASSLQSGVPSRFSGSGSGSDFTLTISSLQPEDFATYYCQQANSFPLTFGGGTKVEIK
notes: Human IgG4 Fc (H4H)
% Maximum blocking [1]: 92%
IC50 [1]: 600 pM
% Maximum blocking [2]: 78%
IC50 [2]: 400 pM
mAb-1 Binding to the Pre-complex of mAb-2 & hIL-33 [3]: 0.52 nm
Antibody Binding Response (RU) [4]: -1 RU
mAb-1 Binding to the Pre-complex of mAb-2 & hIL-33 [5]: 0.17 nm

B8: H4H9662P (antibody, V domains shown)
VH: EVQLVESGGGLVQPGGSLRLSCAASGFTFSSYALTWVRQAPGKGLEWVSFISGSGGRPFYADSVKGRFTISRDNSKNMLYLQMNSLRAEDTAIYYCAKSLYTTSWYGGFDSWGQGTLVTVSS
VL: DIQMTQSPSSVSASVGDRVTITCRASQGVVSWLAWYQQKPGKAPKLLIYAASSLQSGVPSRFSGSGSGTDFTLTISSLQPEDFATYYCQQSNSFPFTLGPGTKVDIK
notes: Human IgG4 Fc (H4H)
% Maximum blocking [1]: 87%
IC50 [1]: 860 pM
% Maximum blocking [2]: 77%
IC50 [2]: 1000 pM
mAb-1 Binding to the Pre-complex of mAb-2 & hIL-33 [3]: 0.57 nm
Antibody Binding Response (RU) [4]: 0 RU
mAb-1 Binding to the Pre-complex of mAb-2 & hIL-33 [5]: 0.19 nm

B9: H1M9565N (antibody, mouse IgG1, V domains shown)
VH: QVTLKESGPVLVKPTESLTLTCSVSGFSLSNVRMGVSWIRQSPGKALEWLAHIFSNDEKSYTTSLKTRLTISKDTSRSQVVLTMTDMDPGDTATYYCARIRNLAFNYWGQGTLVTVSS
VL: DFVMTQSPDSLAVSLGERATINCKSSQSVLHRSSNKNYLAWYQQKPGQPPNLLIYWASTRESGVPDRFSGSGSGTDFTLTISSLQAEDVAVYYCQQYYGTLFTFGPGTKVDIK
notes: Human variable domains, mouse IgG1 Fc (H1M)
% Maximum blocking [1]: 86%
IC50 [1]: 12000 pM
% Maximum blocking [2]: 68%
IC50 [2]: 22000 pM
Antibody Binding Response (RU) [4]: 11 RU
mAb-1 Binding to the Pre-complex of mAb-2 & hIL-33 [5]: -0.01 nm

These reach a lower IC50 [2]. Values come first.

% Maximum blocking [1]: 73%
IC50 [1]: 3500 pM
% Maximum blocking [2]: 78%
IC50 [2]: 350 pM
mAb-1 Binding to the Pre-complex of mAb-2 & hIL-33 [3]: 0.57 nm
Antibody Binding Response (RU) [4]: -1 RU
mAb-1 Binding to the Pre-complex of mAb-2 & hIL-33 [5]: 0.18 nm
B2: H4H9640P (antibody, human IgG4, V domains shown)
VH: QVQLQESGPGLVKPSETLSLTCTVSGGSISSYYWSWIRQPPGKGLELIGYIYYSGSTNYNPSLKSRVTISVDTSKNHFSLKLSSVTAADTAVYYCARSQYTSSWYGSFDIWGQGTMVTVSS
VL: DIQMTQSPSSVSASVGDRVTITCRASQGISTWLAWFQQKPGKAPKLLIYAASTLQGGVPSRFSGSGSGPEFTLTISSLQPEDFATYYCQQANSFPWTFGQGTKVEIK
notes: Human IgG4 Fc (H4H)

% Maximum blocking [1]: 41%
IC50 [1]: 220 pM
% Maximum blocking [2]: 69%
IC50 [2]: 320 pM
mAb-1 Binding to the Pre-complex of mAb-2 & hIL-33 [3]: 0.17 nm
Antibody Binding Response (RU) [4]: 13 RU
mAb-1 Binding to the Pre-complex of mAb-2 & hIL-33 [5]: 0.06 nm
B1: H1M9566N (antibody, mouse IgG1, V domains shown)
VH: EVQLLESGGDLVQPGGSLRLSCAASGFTFSSYAMSWVRQAPGKGLEWVSVISGSGSSTDYADSVKGRFTISRDNSRDTLHLQMNSLRAEDTAVYYCAKTFYYFYGLDVWGQGTTVTVSS
VL: DIQMTQSPSSLSASLRDRVTITCRASQGISNYLAWYQQKPGKVPKVLIYAASTLQSGVPSRFSGSGSGTVFTLTISSLQTEDVATYYCQKYSSAPFTFGPGTKVDIK
notes: as for B9

% Maximum blocking [1]: 68%
IC50 [1]: 4200 pM
% Maximum blocking [2]: 57%
IC50 [2]: 310 pM
mAb-1 Binding to the Pre-complex of mAb-2 & hIL-33 [3]: 0.53 nm
Antibody Binding Response (RU) [4]: -1 RU
mAb-1 Binding to the Pre-complex of mAb-2 & hIL-33 [5]: 0.21 nm
B7: H4H9660P (antibody, human IgG4, V domains shown)
VH: EVQLVESGGGLVQPGGSLRLSCAASGITLSSYGMSWVRQAPGKGLEWVASIFGSGGGPYYADSVKGRFTMSRDNSKNTLYLQMNSLRAEDTAVYYCAKDRYSGSYYGGFDYWGRGTLVTVSS
VL: DIQMTQSPSSVSASVGDRVTITCRASQGITSWLAWYQQKPGKAPTLLIYAASSLQTGVPSRFSGSGSGTDFTLTISSLQPEHFATYYCQQANSFPPTFGGGTKVEIK
notes: Human IgG4 Fc (H4H)

% Maximum blocking [1]: 38%
IC50 [1]: 840 pM
% Maximum blocking [2]: 55%
IC50 [2]: 190 pM
mAb-1 Binding to the Pre-complex of mAb-2 & hIL-33 [3]: 0.08 nm
Antibody Binding Response (RU) [4]: 131 RU
mAb-1 Binding to the Pre-complex of mAb-2 & hIL-33 [5]: 0.05 nm
B3: H1M9568N (antibody, mouse IgG1, V domains shown)
VH: QVLLVQSGAEVKKPGATVKVSCKASGSTFTGYYMHWVRQAPGQGLEWMGWINPNNGGTNYAQKFQGRVTMTRDTSISTAYMELSRLRSDDTAVYYCARELRYNWKSWGQGTLVTVSS
VL: EIVLTQSPGTLSLSPGERVTLSCRASQSVGRPYLAWYQQIPGQAPRLLIYGASSRATDIPDRFSGNGSGTDFTLTISRLEPEDFAVYYCQQYDNSPYTFGQGTRLEIK
notes: as for B9
